From the DeepSol protein solubility set

Experiment: soluble on expression in E. coli; label from the status in PepcDB or PDB records

Sequence | soluble on expression in E. coli
MDAVRQSFQQLQNELRRDWCGIEAGGLASDYDILVVPSLSLDAHELQKISGVLFYEERLLFSLIRLRDPRTRVIYVTSEPLPPLVIDYYLQLLPGIPFSHARDRLLLLSTCDSSLKPLTQKILERPRLLERIRRALRPGSSFMTCFNSSPLERELSVALRVPLFAADPDLLEWGTKAGSRSLFAECGLPHPAGSPLMDSVEDLAAAAAELWQDQPQAQRFVIKLNQGFSGEGNALLDLRPIAQQSPDRVGLTAASQAIAQQFPVMRFQAAHETWQNFQGRITDLGAIAELFIEGEVKRSPSVQGCIHPSGQVEILSTHDQILGGPDGQIYLGCRFPADPAYRLQLQKWGEQIGEALAQRGALERFGVDFVAVNQGGDHWELQAIEINLRKGGTTHPFMTLKYLTNGYYDPQSGQFCSELGQPKYYVATDNLQSPRYRGVLPQDLMDIIAANQLHFDSSTKTGTVFHLMGCLSQYGKLGLTSIGNSPEQAQALYDEVVSVLDRETDPALEHHHHHH | soluble
MSASIRDAGVADLPGILAIYNDAVGNTTAIWNETPVDLANRQAWFDARARQGYPILVASDAAGEVLGYASYGDWRPFEGFRGTVEHSVYVRDDQRGKGLGVQLLQALIERARAQGLHVMVAAIESGNAASIGLHRRLGFEISGQMPQVGQKFGRWLDLTFMQLNLDPTRSAP | soluble
SSTWLSEAEMIALAGLLQMSQGEQTPNCVASSLPSTSCPDPVSVSEDPGPSGDQSCSGTDT | soluble
TWCPGCGNFAILKAFERASRRVIEEGFDIAVSSGIGCHGKISDYLSLPGFHVIHGRVPPFLTGLKLANPNLVVVGFSGDGDGLNEGVEHLVHAARRNTDITIILHNNGVFGLTTGQVTATSPRGRKSRSTPRGNPEYPLNPCHLMLVSGATFVARVFAGEQERLSEVFYNAMKHKGFSFVEVMQPCVSFNNFWEMRK | not soluble
MSERAPLVIIGTGLAGYNLAREWRKLDGETPLLMITADDGRSYSKPMLSTGFSKNKDADGLAMAEPGAMAEQLNARILTHTRVTGIDPGHQRIWIGEEEVRYRDLVLAWGAEPIRVPVEGDAQDALYPINDLEDYARFRQAAAGKRRVLLLGAGLIGCEFANDLSSGGYQLDVVAPCEQVMPGLLHPAAAKAVQAGLEGLGVRFHLGPVLASLKKAGEGLEAHLSDGEVIPCDLVVSAVGLRPRTELAFAAGLAVNRGIVVDRSLRTSHANIYALGDCAEVDGLNLLYVMPLMACARALAQTLAGNPSQVAYGPMPVTVKTPACPLVVSPPPRGMDGQWLVEGSGTDLKVLCRDTAGRVIGYALTGAAVNEKLALNKELPGLMA | soluble
SNGILREVSGIASNSAFYWTNLTSKPYMGFRSGRNWSMTSGDIRTVRSQVPEVEFISPIMWGARSNKNVVFGDKSETYSIVGAEPDYFEISRVNILQGRMLNAVDDKLRRKVCMIGKEVKEKLFGTTDPIGQVLRVNGLYYRVIGVLEAKSNNVTIGSSPKRSVYLPYSVLQQISNSGNRVENFAVSAYPSADMKQMFKKTETIIRSRNQIAPDDDKALSKFDISAQFQLMNMIFTGINL | not soluble
MIQVLGTSSGSGKTTIAMALSRIFFRSGYRVAPFKAVNMSLNSVIVEGEYEIARAQWLQAKAANTEPTRFMNPILLKPEGMGASQVIMLGKSLGKKTIPEYYEFIMNDGKRVIREAIDRISDDYDLIIAEGAGSPAEINLLDRDMANIYVSSIYNTPAILVGDIDRGGVFASIYGTLSLMPRPDLVRWIMINKMRGDASLLEPGLKKLENLTGKRVIGVVPYSENRLPGEDSFDYDHPRARGSKITIVRYPFMENYSDLDPLVYTSTGYNYVTAENASDLSDADLIVLPGSKNVFADLEYMRKNGIDKIIIENAGRAKILGICGGYQMLGQRITMGEISADGLGLLRAKTNYERTKTTRSVRYRVDNTLMSGTWEEGYEIHYGAVISLGGERMNETDKGPEGNVDANRLVFGTNIHGILANRSVFRFMTGRDIGEPEEYLRSEIDRFADVVKSSIDVADLIEYASSRE | not soluble
MNEISVVLPAYNEEENIQKLVKRWQQLCKDLKYKYELSLNIFVIDDGSKDKTEVIGRELERKYDNFYLIKHDKNKGLGEAINTGIKYVMEKRSDSKYVCIMDCDNTQDPRYVFSMIEKMEKTDVVIASRYQKGSCVKGVPFFRLTASYGARFVYTIFLGVKNVRDYTCGYRLYRTSALKTAFKVFGESFIEESGFTCMVELLYKLNICGAVFKEVPFTLRYDFKGGVSKMKVLITAINSVKLTLRLKKIRKGVEPVLEDLEHHHHHH | not soluble
GPLPVDLRGKTAFVAGVADSNGYGWAICKLLRAAGARVLVGTWPPVYSIFKKGLESSRFEQDSFYAQEPSSKVAAEAAEKPVDLVFDKIYPLDAVFDTPQDVPPEVSSNKRYAGVGGFTISEVAEAVRADVGQIDILVHSLANGPEVTKPLLQTSRKGYLAAVSSSSYSFVSLLQHFLPLMKEGGSALALSYIASEKVIPGYGGGMSSAKAALESDCRTLAFEAGRARAVRVNCISAGPLKSRAASAIGKAGDKTFIDLAIDYSEANAPLQKELESDDVGRAALFLLSPLARAVTGATLYVDNGLHAMGQALDSKSLTP | soluble
MTVQTSKNPQVDIAEDNAFFPSEYSLSQYTSPVSDLDGVDYPKPYRGKHKILVIAADERYLPTDNGKLFSTGNHPIETLLPLYHLHAAGFEFEVATISGLMTKFEYWAMPHKDEKVMPFFEQHKSLFRNPKKLADVVASLNADSEYAAIFVPGGHGALIGLPESQDVAAALQWAIKNDRFVISLCHGPAAFLALRHGDNPLNGYSICAFPDAADKQTPEIGYMPGHLTWYFGEELKKMGMNIINDDITGRVHKDRKLLTGDSPFAANALGKLAAQEMLAAYAGLEHHHHHH | soluble
MREIIFLVEEAEEGGFVARALGEAIFTEGETWEELKEMVRDAVRCHFGEEAPPIIRLHFVREEVLTP | soluble
VSDQFDAKAFLKTVTSQPGVYRMYDAGGTVIYVGKAKDLKKRLSSYFRSNLASRKTEALVAQIQQIDVTVTHTETEALLLEHNYIKLYQPRYNVLLRDDKSY | soluble
MGSDKIHHHHHHMQIDKQQVGNRIHQLRIAAGLSMAKLASAIGLAGKSTINDWEKGRTLANADRLAKVAAYFDVSTNYLLYGSLTEYVTAVFQNGGLNHSEFNVLLWEYVDLTTTNPNILSSDLFSSASQTEQGVSDPTKIAAALITPTINNAIRQIVPEIVQHYQQTTTYPEPQAVIQAGCYVFRHRIQIIRRTFTGKYNRIVRLLDNVDLYEKLQPDDDLKAYLNQTTGPKTQVQNGYSLDEKYQRQMNKVITEFHQALNRINDAYQAELMACGQGQAHSAAD | not soluble
MGSSHHHHHHSSGLVPRGSHMMEVGFLGLGIMGKAMSMNLLKNGFKVTVWNRTLSKCDELVEHGASVCESPAEVIKKCKYTIAMLSDPCAALSVVFDKGGVLEQICEGKGYIDMSTVDAETSLKINEAITGKGGRFVEGPVSGSKKPAEDGQLIILAAGDKALFEESIPAFDVLGKRSFYLGQVGNGAKMKLIVNMIMGSMMNAFSEGLVLADKSGLSSDTLLDILDLGAMTNPMFKGKGPSMNKSSYPPAFPLKHQQKDMRLALALGDENAVSMPVAAAANEAFKKARSLGLGDLDFSAVIEAVKFSRE | soluble
MAMIHEMILDGKVVRYRVVEKPVKYVTLRVLEDGTILVVTPLEQIVREVLIKKKDWILSKISIVEEAKELSRKGFPLFGKFYSLEMGEKFEINREELRITFPGIEFLRNWIKREIKRKAREIAKDFGISPKRIYVKAMRTKWGSATWRKSITLNFSSAALPEELFHYLVIHELAHLIELNHSKRFWSLVASYHPDYKKKRRELKKWWFIVHSNETWRAILQWPEGLEHHHHHH | soluble
PHPADPRLLIGQHVGAGPMVLASPWPRIVAPADFDTRFQGEARDLVLAHERVHLARGDAQINALVVALQCLCWFNPLVHLGAHRLRLDQEMACDEAVLARRPEARRLYAETLLDTLLAPR | not soluble
ESPEIQVEEQSFNFGLIPEEKGSVGHSFKFRNSGTAPLLITRVMADCGCTTPTWPEEAIAPGEEAEIRVLFDPVGRSGAFVKRIRVFSNAQSSPLE | not soluble
GSHMGGRLEGLTQDLRQLQESEQQLDHLMNICTTQLRLLSEDTDSQRLAYVTCQDLRSIADPAEQMVMVIKAPPETQLQAVDSSENFQISLKSKQGPIDVFLCPEE | soluble
MGSDKIHHHHHHMSAEDYKNLPVTVEKPIPVVYDLGNLAAFDSNVLDKNDLDSSNARREEKIKSLTRDNVQLLINQLLSLPMKTTTESVGGTGGQSSVMTLLQLPDPTTDLPREKPLPKAKAMTKWEKFAAKKGIKPKERAGKMIYDEASGEWVPKWGYKGANKKLDDQWLVEVDDKVKGTDNELIDPRTLNRAERKRLVKKNEKQQRRNMKNAL | not soluble
MKPNIHPEYRTVVFHDTSVDEYFKIGSTIKTDREIELDGVTYPYVTIDVSSKSHPFYTGKLRTVASEGNVARFTQRFGRFVSTKKGA | soluble
MAHHHHHHMSGENIKNLLAPQPTVDQGPYSGKYEKRMVDLPKPTYSTFYNKNKEFDSTHPRYFKQRDAVIGPIVNDTVDPKNFLRTGQGIKHIVPPVPHKKQHRKDFLDCGDIRKRTQGAMEPADQQQKESSGMGGMGSLANTNGVGGQAGDGIREHDMSSNDPERKGEQANGGDTGLRGTGNVESAVGSCDNKNNFQGAATGDNGRCHLNSLDRSRCKKDFVTSNIIDVDNMVPKRRKDQPEDPTRRKTFGRVPGYIGRVKEVIEKERMQLKAIGEARTNNRLERVGKFVYRLDEQERLNMISKLRAKLTEKGAELNRMPFAKDTYIQMKRKSDLEKRIKEIESSLEKLEKDAVFIYSDDPRVVHWTKDAAFEEARLFASD | not soluble
MVTMALDSVTIEVIRNSAIYISEEMGVVLRDTAFSPNIKDRLDHSCAVLAPDGSLVAQAEHIPVHLGSMSVGVVNLVKYIEDLGMDLGVGDVVVTNDPYISGTHLNDLMAIKPVYAGDFHIAYVANKAHHVDVGGLVPGSIGGGAKELREEGIVIEPVKVVEAGSVRWDIVRMLEANVRTPRYFRGDLMAQIASLNVGEARLRELAGRYGGSALVEAWESILGYTERYTREKIGEVAALASGVYRARDYMETSKGELLEIVATLTIDKGRLTVDYTGTSKQVDEPINAVYGVTVAATLFALKSTLDPEMPMNQGFFRIVEIKAPEGTLVNPLKPAPVGGGNVETSQRIADVVFRALAEALPERVPAASCGTMSNVMVGGRGWAFYETNACGSGARPCCDGVDGVHTNMTNTLNTPIEVIEREYPILFNAYELRPDSGGPGMYRGGLGVVRAFTALEDNVTITIFAERGLTRPWGLSGGRPGRSFEAVITRAAGEVERLMSKHTAKLNRGDTIAIYTPGGGGYGDPCKRDRSLIERDLREGRITMESAVKDYCYDS | not soluble
MKSQPYTASSVTSTSTTHHPWMPISLREPPSKFQKLSTSDAAPLHNVCSSLKMKSTKPSRKRPSPKESDLPPLPSISTLFDSGSSSHSSSSSSNSSYGSYCQFSPEGSYTMYHWPMNYIPYVSPDVTITATTSTSTNAMASPDPIMLSSPPKQPTIEHTPINQPLFIQTADYPYDYSAPDPTGGYPSSATINANQLLLRPVPNGHV | not soluble
MGSDKIHHHHHHEEDNTELSEEDRVAEMFREAGFKVEKLSSKPVNPPMTEKEASLFLAAYKNRERSGSIQIPSENIELKPDGHLVVKVKCNSEKKNFSRTRTVYKEEFDFTHWATYTVRDIEIECWQDIAGYWKSDNVNCTFTTRDPEYICGFPDINPNTGYSKGSLYFSINITVSRYSGWQIYSVDENYDYTLMLTWLPVAQEWNASLSWHETFW | not soluble
MSHVFQIHSSQYKSPSQIPQGKVLVVGGGNSGMQIAVEFAKTHEVTMSISHPLTFLPLHFFRKSIFNWLEKLGLLYAEVSTKRGKWFQKRKDPIFGFEGKELIRNGAIQLQEKVVSASENNIMFQNGETYSAESIIWSTGFIQNYNWIEIEKVVNENGLPNHIKGISPVRGLYYIGLEHHHHHH | soluble
